According to paper PMC3776556, “Crystal structures of the CPAP/STIL complex reveal its role in centriole assembly and human microcephaly” (eLife, 2013):

How the values were obtained:
[1] = target: T1, Danio rerio CPAP^937–1124 TCP domain, WT (Danio rerio, UniProt E7FCY1 937-1124); test: ITC; STIL peptide in syringe titrated into CPAP TCP domain in cell; 50 mM HEPES pH 7.5, 100 mM NaCl, 25°C; single set of binding sites model, N as a variable; CPAP typically 40 μM, STIL typically 700 μM; settings: both partners purified
T1 construct: remnant of the cloning and protease cleavage sites at the N-terminus; also called TCP domain of D. rerio CPAP; G-box; source: E. coli BL21 (DE3) Rosetta, purified (NiNTA, proteolytic tag cleavage, optionally size exclusion, ion exchange); not shown: His tag, N-terminal, cleaved
T1 sequence: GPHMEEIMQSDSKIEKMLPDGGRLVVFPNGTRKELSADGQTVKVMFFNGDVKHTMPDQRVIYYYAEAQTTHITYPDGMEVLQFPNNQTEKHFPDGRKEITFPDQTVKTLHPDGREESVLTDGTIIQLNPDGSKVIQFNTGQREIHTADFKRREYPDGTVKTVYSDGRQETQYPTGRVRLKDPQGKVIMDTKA

[2] = tested on: sas-4(RNAi) C. elegans embryos; test: Monopolar spindle assay after sas-4(RNAi); type: in vivo; settings: second division
Excerpt: (§1) C. elegans strains carrying single-copy sas-4 transgenes were generated using MosSCI ([Frøkjær-Jensen et al., 2008]). To render the transgenes RNAi-resistant, a 500 bp region at the 5′ end of the sas-4 genomic sequence was re-encoded. The engineered sas-4 sequence was cloned into pCFJ151 with the promoter and 3′ UTR from sas-6, as well as a C-terminal GFP tag. pCFJ151 contains homology arms that direct transposase-mediated insertion of intervening sequence into the ttTi5606 Mos1 site on Chromosome II. Transgene integration was confirmed by PCR of regions spanning each side of the insertion. The genotypes of the strains used are: unc-119(ed9)III; ltSi85[pOD1550; Psas-6::SAS-4 reencoded::GFP; cb-unc-119(+)]II for WT SAS-4; and unc-119(ed9)III; ltSi177[pOD1551; Psas-6::SAS-4(1-556) reencoded::GFP; cb-unc-119(+)]II for SAS-4^ΔTCP.
(§2) Double-stranded sas-4 RNA was generated as described ([Oegema et al., 2001]) using DNA templates prepared by PCR. For experiments to quantify monopolar spindle formation, L4 hermaphrodites were injected with dsRNA and incubated at 20°C for 40 hr prior to dissection for imaging. For lethality assays, worms were maintained at 20°C. L4 hermaphrodites were injected with dsRNA and singled 24 hr post-injection. Adult worms were removed from the plates 48 hr post-injection, and hatched larvae and unhatched embryos were counted 24 hr later. […]

[3] = tested on: centrioles in sas-4(RNAi) C. elegans embryos; test: Localisation of SAS-4::GFP in absence of endogenous protein; type: in vivo
Excerpt: as §1, §2

[4] = tested on: sas-4(RNAi) C. elegans embryos; test: Embryonic viability after sas-4(RNAi); type: in vivo
Excerpt: as §1
Double-stranded sas-4 RNA was generated as described ([Oegema et al., 2001]) using DNA templates prepared by PCR. For experiments to quantify monopolar spindle formation, L4 hermaphrodites were injected with dsRNA and incubated at 20°C for 40 hr prior to dissection for imaging. For lethality assays, worms were maintained at 20°C. L4 hermaphrodites were injected with dsRNA and singled 24 hr post-injection. Adult worms were removed from the plates 48 hr post-injection, and hatched larvae and unhatched embryos were counted 24 hr later.

[5] = target: T1, Danio rerio CPAP^937–1124 TCP domain, WT; test: crystal structure; D. rerio CPAP^937–1124 with D. rerio STIL^408–428, protein/peptide mixture; 100 mM Tris pH 8.5, 200 mM CaAcetate, 17% PEG-2000 MME, 19.5°C; settings: both partners purified
[6] = target: T2, Drosophila melanogaster DSas-4 (dCPAP) TCP domain, residues 700–901 (Drosophila melanogaster, UniProt Q9VI72 700-901); test: crystal structure; D. melanogaster dSTIL^1–47 fused to the N-terminus of dCPAP^700–901 on one chain; sitting drop, Morpheus screen; settings: both partners purified
T2 construct: source: E. coli B834 (DE3), purified (NiNTA, proteolytic tag cleavage, size exclusion), as a fusion with dSTIL^1–47
T2 sequence (looked up): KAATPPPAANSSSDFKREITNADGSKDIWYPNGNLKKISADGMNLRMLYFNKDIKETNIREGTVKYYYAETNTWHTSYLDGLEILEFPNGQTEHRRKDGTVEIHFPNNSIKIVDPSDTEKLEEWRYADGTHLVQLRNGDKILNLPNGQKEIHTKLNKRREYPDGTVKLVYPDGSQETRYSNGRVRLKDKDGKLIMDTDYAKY

[7] = SEC-MALS / dynamic light scattering of CPAP TCP domain; type: physicochemical

B1: Danio rerio STIL^411–428 (peptide)
chain: GEDEDLSPRPSPNPHPVSQENLYFQ
notes: remnant of the cloning and protease cleavage sites at the N-terminus; remnant of the cloning and protease cleavage sites at the C-terminus; expression and purification are told for STIL^404–448; the same paragraph gives the extra residues of this construct; also called N-terminal region of CR2 peptide; source: E. coli C41 BL21 (DE3), purified (NiNTA, proteolytic cleavage of the His-lipoyl …)
Kd [1]: 4 µM
dH [1]: -11.3 kcal/mol
stoichiometry N [1]: 0.98

B2: SAS-4^ΔTCP::GFP: C. elegans SAS-4 (aa 1–556) with TCP domain (aa 557–808) deleted, GFP fusion (protein, UniProt P34402 1-556, looked up, fragment)
chain: MASDENIGADGEQKPSRPFLRKGQGTARFRMPRNNKTSAGAPPTSELSSASSPSINVPRFSLSNALPNSARTVDSGISNEDETRPPTTASLPMDQPSLSSSPENRLNPAPSVAEEHGHSGQHAEEEEDNDTDEVSAMPSFVPDEPSTLVNSDHELSDDALKYKNAAAEFKAFERRMDSMRSASTITTSLATPSSCAPSNSSEPPTRSTPIMNDLGVGPNNHNWPSSMQELSGISLETPQARPLGSNRINQLVRSEAQTGISLLQHHERPTVTAPLRRNDMMNSSRQNPQNGNVQDENRPEHVYDQPIHVPGSSLDRQKLEIEIRRHRNLNIQLRDTIAHLDYAEESVHTTKRQLEEKISEVNNFKKELIEEFKKCKKGVEEEFEKKFEKIKEDYDELYEKLKRDQRDLERDQKILKKGTGERNKEFTETIATLRDKLRASETKNAQYRQDIRVRDEKLKKKDEEIEKLQKDGNRLKSTLQTLEKRVKQLRTEKERDDKEKEMFAKVAMNRKTSNPVPPVLNQSVPISITSNGPSRHPSSSSLTTFRKPSTSNRERG
modifications: GFP fusion
notes: C. elegans SAS-4 (aa 1–556) with TCP domain (aa 557–808) deleted, GFP fusion
rescue of monopolar spindle phenotype [2]: not by the ΔTCP transgene
centriole targeting [3]: did not, and instead exhibited a diffuse accumulation in the pericentriolar material
rescue of embryonic viability [4]: not by the ΔTCP transgene

B3: Danio rerio STIL^429–448 (peptide)
chain: GQTKRVHPLVPELSMVLDGSFEFGENLYFQ
notes: remnant of the cloning and protease cleavage sites at the N-terminus; STIL, Danio rerio, residues 429-448; remnant of the cloning and protease cleavage sites at the C-terminus; expression and purification are told for STIL^404–448; also called C-terminal region of CR2 peptide; source: E. coli C41 BL21 (DE3), purified (NiNTA, proteolytic cleavage of the His-lipoyl domains, ion exchange); not …
Kd [1]: 540 µM
dH [1]: -6.3 kcal/mol
stoichiometry N [1]: 0.97

B4: SAS-4^WT::GFP: C. elegans WT SAS-4 (aa 1–808) GFP fusion, RNAi-resistant transgene (protein, UniProt P34402 1-808, looked up)
chain: MASDENIGADGEQKPSRPFLRKGQGTARFRMPRNNKTSAGAPPTSELSSASSPSINVPRFSLSNALPNSARTVDSGISNEDETRPPTTASLPMDQPSLSSSPENRLNPAPSVAEEHGHSGQHAEEEEDNDTDEVSAMPSFVPDEPSTLVNSDHELSDDALKYKNAAAEFKAFERRMDSMRSASTITTSLATPSSCAPSNSSEPPTRSTPIMNDLGVGPNNHNWPSSMQELSGISLETPQARPLGSNRINQLVRSEAQTGISLLQHHERPTVTAPLRRNDMMNSSRQNPQNGNVQDENRPEHVYDQPIHVPGSSLDRQKLEIEIRRHRNLNIQLRDTIAHLDYAEESVHTTKRQLEEKISEVNNFKKELIEEFKKCKKGVEEEFEKKFEKIKEDYDELYEKLKRDQRDLERDQKILKKGTGERNKEFTETIATLRDKLRASETKNAQYRQDIRVRDEKLKKKDEEIEKLQKDGNRLKSTLQTLEKRVKQLRTEKERDDKEKEMFAKVAMNRKTSNPVPPVLNQSVPISITSNGPSRHPSSSSLTTFRKPSTSNRERGVSWADEPNEQSLEAVPQEFLMMPVKEMPGKFGKCTIYRDSLGETSKVTDTIANGLLFEYSNGDLRWVNRQNAVNIYISAVDKTVRIDLPTYNISIIHTFQRQVEVLRPGNNITLISIKRREVRTDLIYQNGMYKTEIFNRDGRYVTKDFSNQEVSRKYNPGTHTYRDNQCRYVLVTDYNDFELVEPEFRLRWYQGDPTGLNNQYILKIIGRPECSEKTLRLEVNLSTCEGTLETAEMIGDKRRKTTLFQWKK
modifications: full-length GFP fusion
notes: C. elegans WT SAS-4 (aa 1–808) GFP fusion, RNAi-resistant transgene
rescue of monopolar spindle phenotype [2]: fully rescued
centriole targeting [3]: targeted to centrioles
rescue of embryonic viability [4]: fully rescued

B5: Danio rerio STIL^408–428 (peptide)
chain: GSGVEDEDLSPRPSPNPHPVSQENLYFQ
notes: remnant of the cloning and protease cleavage sites at the N-terminus; remnant of the cloning and protease cleavage sites at the C-terminus; used for crystallisation only; also called STIL peptide; source: E. coli C41 BL21 (DE3), purified (NiNTA, proteolytic cleavage of the His-lipoyl domains, ion exchange); not shown: His-tagged lipoyl domain (Bacillus stearothermophilus dihydrolipoamide …)
binding result [5]: binds

B6: Drosophila melanogaster Ana2 (dSTIL) residues 1–47 (domain or fragment, UniProt Q9XZ31 1-47, looked up)
chain: MFVPETEDMLPRLAPRPSAAVPMGHTNEIIGPTVPEVSILFGQPPQD
notes: Ana2 (dSTIL), Drosophila melanogaster, residues 1-47, the region equivalent to CR2; codon-optimised gene; no linker or residues left by tag cleavage are told; also called dSTIL^1–47; dSTIL peptide; not shown: His tag, N-terminal, cleaved
binding result [6]: binds

B7: CPAP^937–1124: TCP domain of Danio rerio CPAP, residues 937–1124, recombinant, GPHM at N-terminus (protein)
chain: T1 sequence
modifications: left off: His tag, N-terminal, cleaved
notes: TCP domain of Danio rerio CPAP, residues 937–1124, recombinant, GPHM at N-terminus
oligomeric state in solution ([7]; SAXS and SEC-MALS): predominantly monomeric in solution
molar mass (averaged across central 50% of peak) ([7]; SEC-MALS, injected at approximately 460 μM, 25 mM bis Tris pH 7.2, 100 mM NaCl, theoretical monomer 22 kDa): 23 kDa
Rh (hydrodynamic radius) ([7]; dynamic light scattering with SEC, intermediate concentration, 25 mM bis Tris pH 7.2, 100 mM NaCl): 2.9 ± 0.15 nm
